Laboratory results from patent publication US20080227691A1.

Target: LRP (low density lipoprotein receptor-related protein) (human) (UniProt Q07954)
Test: SPR, Biacore 3000, LRP amine-coupled to CM5 chip, A2 domain as analyte 62.5-500 nM, 1:1 Langmuir fit, 25 C

First: HPC4-tagged A2 domain mutant 488S->N & 490R->T (from UniProt P00451 392-759) (ligand)
Second: HPC4-tagged A2 domain mutant 433D->N (from UniProt P00451 392-759) (ligand)
The Kd of the first is 1.5-fold higher: 0.26 µM for the first, 0.17 µM for the second. The second binds more tightly here.

“HPC4-tagged A2 domain of wild-type FVIII (from UniProt P00451 392-759) (ligand)” gave a Kd of 0.02 µM.
